We go through three molecules from US8124349B2, “Toll-like receptor assays” (University of Massachusetts, priority 2003, dated 2012).

Assay [1] has as its target T1, TLR9 (Homo sapiens, UniProt Q9NR96).
T1 construct: expressed in transfected cells; host or cells: HEK293 cells stably expressing TLR^FP
T1 sequence (Q9NR96 26-1032): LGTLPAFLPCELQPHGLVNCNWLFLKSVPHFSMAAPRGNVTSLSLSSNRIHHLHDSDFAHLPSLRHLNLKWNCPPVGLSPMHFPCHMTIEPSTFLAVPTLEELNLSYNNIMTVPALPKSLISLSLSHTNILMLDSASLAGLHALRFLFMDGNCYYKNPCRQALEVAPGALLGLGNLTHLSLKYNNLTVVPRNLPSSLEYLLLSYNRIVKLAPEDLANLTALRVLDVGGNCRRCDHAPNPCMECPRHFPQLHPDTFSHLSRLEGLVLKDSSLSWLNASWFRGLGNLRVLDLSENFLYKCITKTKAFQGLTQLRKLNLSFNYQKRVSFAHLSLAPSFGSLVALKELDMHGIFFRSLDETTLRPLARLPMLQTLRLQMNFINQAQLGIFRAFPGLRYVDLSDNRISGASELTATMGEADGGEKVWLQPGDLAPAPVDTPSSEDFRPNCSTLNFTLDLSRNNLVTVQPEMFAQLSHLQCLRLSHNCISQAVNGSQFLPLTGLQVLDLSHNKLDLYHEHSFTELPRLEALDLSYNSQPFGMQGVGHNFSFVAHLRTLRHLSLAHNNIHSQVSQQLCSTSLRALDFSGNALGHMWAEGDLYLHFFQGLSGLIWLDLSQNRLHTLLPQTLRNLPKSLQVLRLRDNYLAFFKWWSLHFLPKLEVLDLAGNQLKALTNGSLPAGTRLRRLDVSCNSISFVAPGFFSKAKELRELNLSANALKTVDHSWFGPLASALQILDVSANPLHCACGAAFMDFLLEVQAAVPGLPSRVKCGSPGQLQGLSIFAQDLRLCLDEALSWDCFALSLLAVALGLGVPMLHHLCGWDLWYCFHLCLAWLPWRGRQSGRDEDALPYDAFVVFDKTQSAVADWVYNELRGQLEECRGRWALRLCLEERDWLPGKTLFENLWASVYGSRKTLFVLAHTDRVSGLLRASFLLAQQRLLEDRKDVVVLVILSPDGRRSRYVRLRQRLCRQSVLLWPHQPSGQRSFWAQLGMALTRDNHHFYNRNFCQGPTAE
As to the kind of experiment: TLR9 signaling in TLR9-expressing HEK cells. The class given is cell-based. As for the experimental part: Cellular activation was assessed by NF-κB-luciferase reporter assay. Briefly, HEK293 cells that stably express a TLR^FP or empty vector (pcDNA) were seeded into 96-well tissue culture plates at a density of 2×10^4 cells/well. The following day, cells were transiently transfected with luciferase reporter genes using Genejuice (Novagen) per the manufacturer's recommendations. In order to assess NF-κB activation, an NF-κB-luciferase reporter gene consisting of an artificial promoter composed of a multimer of five NF-κB sites driving the firefly luciferase gene, was co-transfected with a constitutively active Renilla-luciferase reporter gene (Promega, Madison, Wis.).

For assay [2], the target named is T2, TLR9^YFP (Homo sapiens, UniProt Q9NR96).
T2 construct: expressed in transfected cells; host or cells: HEK cells stably expressing TLR9^YFP, used as cellular lysate
T2 sequence (Q9NR96 26-1032): T1 sequence (Q9NR96 26-1032)
Nature of the assay: Competition plate assay: TLR9^YFP binding to plate-bound biotinylated CpG-DNA 2006 in presence of competitor. Particulars: plates coated with 0.3 μM biotin-CpG-DNA 2006; competitor added to TLR9^YFP lysate; FIGS. 5A-D. The source says:
This assay can be adapted for use in drug-screening applications. For example, the interaction of TLR9 with CpG-DNA reflects a clinically important receptor/ligand interaction since a variety of autoimmune diseases are thought to be based on the interaction of DNA-antibody complexes with this receptor (Leadbetter et al., 2002, Nature 416:603-607). Thus, antagonists for this interaction are useful for the development of novel anti-inflammatory drugs. To examine the application of this assay to the identification of such compounds (e.g., compounds that increase or decrease the interaction) and so are potential drugs for ameliorating TLR-related disorders, a competition assay was developed that was based on the basic plate assay described above. The competition assay was performed essentially as described above for the plate assay. In addition, non-biotinylated CpG-DNA (“cold ligand”) or other compounds that interfere with TLR9 signaling (R848 or bacterial DNA) were added to the TLR9-containing lysates. The ability of the various compounds to inhibit binding of TLR9^YFP to the plate-bound biotinylated CpG-DNA was then evaluated.
In the assay, NeutrAvidin™ plates (Pierce) were coated with 0.3 μM biotin-CpG-DNA 2006 as described above. […]

The target of assay [3] is T3, TLR2:Fc (Homo sapiens, UniProt O60603).
T3 construct: a fusion protein consisting of the extracellular domain of TLR2 and the mouse Fc portion of immunoglobulin G, isotype 2a
T3 sequence (O60603 21-588 limits assumed, species assumed): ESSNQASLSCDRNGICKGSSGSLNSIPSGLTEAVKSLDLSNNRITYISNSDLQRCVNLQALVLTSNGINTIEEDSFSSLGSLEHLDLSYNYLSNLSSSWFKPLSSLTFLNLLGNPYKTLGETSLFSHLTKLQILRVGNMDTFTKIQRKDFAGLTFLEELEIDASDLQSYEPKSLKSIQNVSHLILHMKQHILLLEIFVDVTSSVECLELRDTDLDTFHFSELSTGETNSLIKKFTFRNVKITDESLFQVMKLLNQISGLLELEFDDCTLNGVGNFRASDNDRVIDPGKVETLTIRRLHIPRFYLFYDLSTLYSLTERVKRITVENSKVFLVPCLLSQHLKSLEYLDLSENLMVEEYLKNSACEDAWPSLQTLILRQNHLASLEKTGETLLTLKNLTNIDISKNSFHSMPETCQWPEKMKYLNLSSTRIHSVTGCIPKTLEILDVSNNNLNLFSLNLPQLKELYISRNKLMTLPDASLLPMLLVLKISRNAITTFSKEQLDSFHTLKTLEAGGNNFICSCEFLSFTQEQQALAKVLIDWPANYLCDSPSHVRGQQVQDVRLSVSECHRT
Nature of the assay: Cell-free ELISA: plated TLR2:Fc probed with biotinylated ligand. As to conditions: FIG. 8B. The format is binding. Here is the method:
(§1) Briefly, various TLR2 ligands were plated on plastic in carbonate buffer pH 9 for two hours at different concentrations (X axis) in duplicate points. After washing (PBS-0.05% Tween 20), a fusion protein consisting of the extracellular domain of TLR2 and the mouse Fc portion of immunoglobulin G, isotype 2a (TLR2:Fc, see U.S. Provisional Patent Application Ser. No. 60/598,774), was added at 1 mg/ml (0.1 mg/well).
(§2) In a similar setting, the TLR2:Fc fusion protein and the related TLR4:Fc, were plated on plastic and the biotinylated ligand used to probe the wells. The TLR2 bound biotinylated protein was reveled using a HRP conjugated anti biotin polyclonal antiserum (NEB).
Background: An ELISA detects its analyte on a solid surface through an enzyme-linked reagent.

Assay [4] concerns the target T4, TLR4:Fc (Homo sapiens, UniProt O00206).
T4 construct: the TLR2:Fc fusion protein and the related TLR4:Fc, were plated on plastic
Nature of the assay: Cell-free ELISA: plated TLR4:Fc probed with biotinylated ligand. The format is binding. As to conditions: FIG. 8B. As for the experimental part: as §1, §2

The target in assay [5] is T5, TLR2 (Homo sapiens, UniProt O60603).
T5 construct: expressed in transfected cells; host or cells: 293 (HEK 293) cells stably expressing TLR2
T5 sequence (O60603 21-784, species assumed): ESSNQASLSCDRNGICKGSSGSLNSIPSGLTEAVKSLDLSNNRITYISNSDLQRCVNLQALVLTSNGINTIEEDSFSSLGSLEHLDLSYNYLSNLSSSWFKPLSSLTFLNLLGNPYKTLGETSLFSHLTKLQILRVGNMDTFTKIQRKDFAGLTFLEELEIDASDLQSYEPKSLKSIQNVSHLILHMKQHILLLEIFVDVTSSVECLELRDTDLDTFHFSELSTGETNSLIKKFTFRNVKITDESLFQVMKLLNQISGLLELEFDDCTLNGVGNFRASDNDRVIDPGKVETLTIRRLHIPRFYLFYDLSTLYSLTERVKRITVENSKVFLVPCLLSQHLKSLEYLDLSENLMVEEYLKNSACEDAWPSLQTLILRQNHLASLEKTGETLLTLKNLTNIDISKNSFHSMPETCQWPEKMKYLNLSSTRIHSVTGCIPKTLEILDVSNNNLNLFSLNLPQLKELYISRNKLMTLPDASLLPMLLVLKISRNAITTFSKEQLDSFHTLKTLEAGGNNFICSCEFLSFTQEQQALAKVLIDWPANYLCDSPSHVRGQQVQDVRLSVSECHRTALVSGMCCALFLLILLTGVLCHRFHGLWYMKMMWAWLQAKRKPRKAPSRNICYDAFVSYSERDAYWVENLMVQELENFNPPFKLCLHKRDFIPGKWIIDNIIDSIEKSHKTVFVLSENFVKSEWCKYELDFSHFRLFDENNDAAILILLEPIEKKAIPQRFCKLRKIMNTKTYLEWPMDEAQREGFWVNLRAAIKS
T5 sequence (Q15399 25-786 partner, species assumed): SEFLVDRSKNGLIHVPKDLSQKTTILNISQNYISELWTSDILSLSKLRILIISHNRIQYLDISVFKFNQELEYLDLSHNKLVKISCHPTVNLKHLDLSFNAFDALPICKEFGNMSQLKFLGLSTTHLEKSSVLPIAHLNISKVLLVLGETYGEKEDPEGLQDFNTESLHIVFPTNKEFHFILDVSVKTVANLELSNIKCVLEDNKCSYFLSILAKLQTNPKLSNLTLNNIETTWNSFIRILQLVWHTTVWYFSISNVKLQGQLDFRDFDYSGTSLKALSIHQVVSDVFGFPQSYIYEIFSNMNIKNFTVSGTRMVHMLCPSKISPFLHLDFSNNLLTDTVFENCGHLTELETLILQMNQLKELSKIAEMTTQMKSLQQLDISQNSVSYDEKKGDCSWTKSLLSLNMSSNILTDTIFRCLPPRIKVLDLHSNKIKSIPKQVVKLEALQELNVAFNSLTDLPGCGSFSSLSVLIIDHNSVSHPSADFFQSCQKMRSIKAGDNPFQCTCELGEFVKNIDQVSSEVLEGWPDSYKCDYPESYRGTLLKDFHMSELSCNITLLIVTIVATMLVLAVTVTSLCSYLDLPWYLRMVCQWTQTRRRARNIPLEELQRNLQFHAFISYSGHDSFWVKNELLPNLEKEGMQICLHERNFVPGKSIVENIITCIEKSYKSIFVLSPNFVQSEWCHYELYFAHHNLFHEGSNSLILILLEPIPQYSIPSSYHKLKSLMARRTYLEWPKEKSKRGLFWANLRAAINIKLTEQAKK
As to the kind of experiment: NF-κB luciferase reporter assay in 293 cells stably expressing TLR2. The format is cell-based. Particulars: 0.01-10 μg/ml stimulant; FIG. 7B. As for the experimental part:
293 cells stably expressing TLR4/MD-2 (as described in Visintin et al., 2003, J. Biol. Chem., 278(48):48313-48320) or TLR2 were stimulated using lipopolysaccharide (LPS) or PorinB, and the extent of activation measured as the activation of a NF-κB-dependent reporter gene encoding for the Luciferase gene. To measure NF-κB activation, 2 μg of a reporter plasmid in which NF-κB drives the synthesis of luciferase was transiently cotransfected with 5 μg of the indicated cDNA by lipofection (GeneJuice) in 10-cm tissue culture dishes following the manufacturer's recommendations. The following morning, cells were seeded at a density of 50,000 cells/well in a 96-well plate, allowed to recover for 5 hours, and stimulated as indicated between 6 and 18 hours. Luciferase activity was measured with a plate reader luminometer (Victor^2, PerkinElmer Life Sciences) using chemicals provided with the luciferase assay system (Promega, Madison, Wis.). All data are presented as the means ±S.D. of triplicate well readings, normalized to a value of 1.0 in comparison with an unstimulated negative control.
(In general: A reporter such as luciferase makes a cellular process visible.)

T4 sequence (O00206 24-631 limits assumed, species assumed): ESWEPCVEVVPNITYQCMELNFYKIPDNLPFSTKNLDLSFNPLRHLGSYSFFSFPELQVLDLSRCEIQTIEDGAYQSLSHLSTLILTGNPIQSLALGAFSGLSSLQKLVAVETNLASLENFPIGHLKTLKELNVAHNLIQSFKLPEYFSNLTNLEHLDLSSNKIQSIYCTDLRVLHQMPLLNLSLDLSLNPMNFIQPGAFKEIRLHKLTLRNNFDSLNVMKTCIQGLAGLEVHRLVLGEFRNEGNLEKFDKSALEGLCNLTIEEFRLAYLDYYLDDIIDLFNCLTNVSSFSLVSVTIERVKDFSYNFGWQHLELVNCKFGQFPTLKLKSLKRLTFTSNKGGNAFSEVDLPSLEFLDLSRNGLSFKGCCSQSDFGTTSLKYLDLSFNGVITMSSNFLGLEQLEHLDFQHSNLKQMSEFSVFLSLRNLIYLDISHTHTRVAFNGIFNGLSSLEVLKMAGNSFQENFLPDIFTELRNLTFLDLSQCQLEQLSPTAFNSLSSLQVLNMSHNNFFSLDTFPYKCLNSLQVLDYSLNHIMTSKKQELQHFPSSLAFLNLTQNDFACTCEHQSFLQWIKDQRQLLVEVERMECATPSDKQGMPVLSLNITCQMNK

For the molecule `CCOCc1nc2c(N)nc3ccccc3c2n1CC(C)(C)O` [R848], the “Inhibition of TLR9 signaling” value in assay [1] is “inhibited TLR9 signaling in a dose dependent manner”. The “Inhibition of TLR9 binding to biotinylated immobilized CpG-DNA” value in assay [2] is on record as “did not interfere with the binding of TLR9 to CpG-DNA”.

For “bacterial alkaline phosphatase (BAP): bacterial alkaline phosphatase”, the “Binding of biotinylated ligand to plated TLR2:Fc” value in assay [3] was “bind to TLR2:Fc”. In assay [4], the “Binding of biotinylated ligand to plated TLR4:Fc” value was “not to TLR4:Fc”.

B1: PorinB: the protein PorinB from Neisseria meningitidis (protein)
chain: DVTLYGTIKAGVETSRSVFHQNGQVTEVTTATGIVDLGSKIGFKGQEDLGNGLKAIWQVEQKASIAGTDSGWGNRQSFIGLKGGFGKLRVGRLNSVLKDTGDINPWDSKSDYLGVNKIAEPEARLISVRYDSPEFAGLSGSVQYALNDNAGRHNSESYHAGFNYKNGGFFVQYGGAYKRHHQVQEGLNIEKYQIHRLVSGYDNDALYASVAVQQQDAKLTDASNSHNSQTEVAATLAYRFGNVTPRVSYAHGFKGLVDDADIGNEYDQVVVGAEYDFSKRTSALVSAGWLQEGKGENKFVATAGGVGLRHKF
For the molecule B1, the “NF-κB reporter activation in TLR2 expressing cells” value in assay [5] is recorded as “efficiently activates”. In addition, in assay [3], the “Binding of biotinylated ligand to plated TLR2:Fc” value is reported as “specifically bound”. For the same molecule, in assay [4], the “Binding of biotinylated ligand to plated TLR4:Fc” value is on record as “did not”.
